From patent publication US11655301B2, “Carrier-binding agent compositions and methods of making and using the same” (Mayo Foundation for Medical Education and Research, priority 2016, dated 2023)

What was measured:
ABX [1] = biological target: T1, ABX (Homo sapiens, UniProt P02768); test: Binding of cisplatin to ABX (free cisplatin in supernatant by HPLC); type: physicochemical; conditions: ABX 5 mg/ml, cisplatin 0.5 mg/ml, room temperature, 30 minutes
T1 construct: purchased Celgene Corporation, Summit, N.J

CD20 = biological target: T2, CD20 (Homo sapiens, UniProt P11836); test: Blocking of fluorescent anti-human CD20 labeling of Daudi cells (flow cytometry); type: cell-based; conditions: Daudi cells pretreated before CD20 labeling
T2 construct: endogenous in cells; host or cells: Daudi human B-cell lymphoma cells
T2 sequence (P11836 1-297): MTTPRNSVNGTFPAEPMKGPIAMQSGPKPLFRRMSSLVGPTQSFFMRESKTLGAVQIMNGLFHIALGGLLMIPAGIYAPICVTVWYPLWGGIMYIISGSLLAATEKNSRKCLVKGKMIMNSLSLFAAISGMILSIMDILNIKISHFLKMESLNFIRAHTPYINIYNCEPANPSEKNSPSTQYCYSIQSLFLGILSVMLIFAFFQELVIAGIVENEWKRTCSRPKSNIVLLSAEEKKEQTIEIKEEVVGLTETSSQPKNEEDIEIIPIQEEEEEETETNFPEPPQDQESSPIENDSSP
Text: CD20 positive Daudi lymphoma cells were labeled with fluorescent tagged anti-human CD20 or isotype matched control in panel F and A, respectively, and analyzed by flow cytometry.

ABX [2] = biological target: T1, ABX; test: Bio-Layer Interferometry (BLItz) binding of antibody to ABX; conditions: for binding affinity to ABX (in words): BLItz; for dependence of binding affinity to ABX on pH / temperature: pH 3, 5, 7, 9, BEV also RT, 37° C., 58° C.
Protocol: The association and dissociation constants were calculated using the BLItz software.

[3] = system: Daudi human lymphoma cells; test: Daudi lymphoma xenotransplant in athymic nude mice; type: in vivo; conditions: ABX 30 mg/kg, rituximab 12 mg/kg
Protocol: Tumor response was determined at day 7 post-treatment by the percent change in tumor size from the first day of treatment.
(§1) To test tumor efficacy, 1×10^6 A375 human melanoma cells were implanted into the right flank of athymic nude mice (Harlan Sprague Dawley, Indianapolis, Ind.). […] Tumor size was monitored 3 times/week and tumor volume was calculated with the following equation: (length×width^2)/2. Mice were sacrificed when the tumor size equaled 10% of the mouse body weight or about 2500 mm^3. The day 7 percent change from baseline was calculated as follows: [(tumor size on treatment day-tumor size on day 7)/tumor size on treatment day]×100.
On day 7 post treatment, tumors were measured and the percent change in tumor size from baseline was calculated.

[4] = system: A375 human melanoma cells; test: A375 xenograft, BEV pretreatment follow up study; type: in vivo, athymic nude mice; conditions: day 7 and day 10 post treatment; BEV 12 mg/kg, ABX 30 mg/kg
Text: Data is represented at day 7-post and day 10-post treatment as tumor volume in mm^3. FIGS. 11A-E track tumor size over 10 days. […] See also FIG. 11 F and FIG. 11 G.

[5] = system: A375 human melanoma cells; test: A375 human melanoma xenograft in athymic nude mice; type: in vivo; conditions: BEV 12 mg/kg, ABX 30 mg/kg, tumors about 700 mm^3 at treatment
Protocol: In vivo experiments were performed at least 2 times. The number of mice required for those experiments was determined by power analysis. Mouse tumors were measured 2-3 times/week and mice were sacrificed when the tumor was 10% by weight. […] The end point of the mouse studies was median survival. Kaplan-Meier curves were generated and Mantle-Cox test was performed to determine significance of median survival between treatment groups. The in vitro results presented are representative of at least 5 repeated experiments. Statistical analyses of in vitro and in vivo percent change from baseline experiments were done using the Student's t-test.
as §1
The ABC complex was tested in the A375 melanoma xenotransplant model relative to each drug alone and AB160.
The effect of AB225 was assayed in animals as set forth above.

| Compound | cisplatin remaining in the supernatant (ABX [1]) | blocking of CD20 binding of fluorescent anti-CD20 (CD20) | binding affinity to ABX (in words) (ABX [2]) | dependence of binding affinity to ABX on pH / temperature (ABX [2]) | median survival [3] | average tumor volume [4] | median survival [5] |
| --- | --- | --- | --- | --- | --- | --- | --- |
| N.N.[Cl][Pt][Cl] [cisplatin] | 40% | – | – | – | – | – | – |
| rituximab | – | specifically blocked | picomolar range | decreased with higher pH | 12 days | – | – |
| bevacizumab | – | – | picomolar range | both pH- and temperature-dependent | – | not therapeutic | 14 days |
